Results reported in the nanobody polyreactivity screen of Harvey et al. (2022).

Experiment: yeast display, Sf9 membrane polyspecificity reagent, FACS + sequencing; frameworks hold sequencing errors
Summary of the method: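 Polyreactivity labels are assigned by the sorting gate from which each nanobody was recovered. The gates were low and high (top ~1%), set on anti-HA fluorescence for expression and streptavidin fluorescence for reagent binding. Before sorting, galactose-induced (36–48 hours) yeast display cells were stained for 1 hour at 4 °C with 10% biotinylated, detergent-solubilized Sf9 membrane reagent.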

Row | Sequence | polyreactivity (PSR sort gate)
1 | QVQLVESGGGLVQAGGSLRLSCAASGRTFYGYVMGWYRQAPGQERELVAAISRSVGSTYYADSVKGRFTISRDNAKNTVYLQMNSLKPEDTAVYYCATSVYGGVDYWGQGTQVTVSS | high polyreactivity
2 | QVQLVESGGGLVQAGGSLRLSCAASGRTFYINAMGWYRQAPGKERELVAGINSRGGSTYADSVKGRFTISRDNAKNTVYLQMNSLNPEDTAVYYCNARRKYLGYNYWGQGTQVTVSS | high polyreactivity
3 | QVQLVESGGGLVQAGGSLRLSCAASGRTFYINAMGWYRQAPGKERELVATITRSGGSTYYADSVKGRFTISRDNAKNTVYLQMNSLKPEDTAVYYCAAGGGYYRYRDYDYWGQGTQVTVSS | high polyreactivity
4 | QVQLVESGGGLVQAGGSLRLSCAASGRTFYIYAMGWYRQAPGKERELVAAITSVGSTNYADSVKGRFTISRDNAKNTVYLQMNSLKQEVTAVYYCAAESTEGTSGDYDYWGQGTQVTVSS | low polyreactivity
5 | QVQLVESGGGLVQAGGSLRLSCAASGRTFYIYAMGWYRQAPGNERELVADISSSDDSTYYADSEKGRFTISRDNAKNTVYLQMNSLKPEDTAVYYCAAELYYFFDEHYYWGQGTQVTVSS | low polyreactivity
6 | QVQLVESGGGLVQAGGSLRLSCAASGRTFYKNAMGWYRQAPGKEREFVASISVSGGRTYYADSVKGRFTISRDNAKNTVYLQMNSLKQEDTAVYYCNARASPLSQRDYWGQGTQVTVSS | low polyreactivity
7 | QVQLVESGGGLVQAGGSLRLSCAASGRTFYKNAMGWYRQATGKERELVARISRGGSTNYADSVKGRFTISRDNAKNTVYLQMNSLKPEDTAVYYCAKEYGTHGKTYDYWGQGTQVTVSS | high polyreactivity
8 | QVQLVESGGGLVQAGGSLRLSCAASGRTFYKYAMGWSRQAPGKERELVAVINWSGGRTYADSVKGRFTISRDNAKNTVYLQMNSLKPEDTAVYYCAADRGGLTHRWERNDYWGQGTQVTVSS | low polyreactivity
9 | QVQLVESGGGLVQAGGSLRLSCAASGRTFYKYVMVWYRQAPGKERELVAAITRSGGRTYYADSVKGRFTISRDNAKNTVYLHMNSLKPEDTAVYYCAAASYSGHGRYDYWGQGTQVTVSS | high polyreactivity
10 | QVQLVESGGGLVQAGGSLRLSCAASGRTFYLYAMGWYIQAPGKERELVAGISRSGGSTYYADSVKGRFTISRDNAKNTVYLQMNSLKPEDTAVYYCAAGYYYWGQGTQVTVSS | high polyreactivity
11 | QVQLVESGGGLVQAGGSLRLSCAASGRTFYLYTKGWYRQAPGKERELVAAISRGGRTYADSVKGRFTISRDNAKNTVYLQMNSLKPEDTAVDYCNRELTSPRRWHVSRAYDYWGQGTQVTVSS | low polyreactivity
12 | QVQLVESGGGLVQAGGSLRLSCAASGRTFYLYTMGWYRQAPGKEREFVAIISRSGASTRYADSVKGRFTISRDNAKNTVYLQMNRLKPEDTAVYYCAAYVGYPYDYWGQGTQVTVSS | high polyreactivity
13 | QVQLVESGGGLVQAGGSLRLSCAASGRTFYNNAMGWYRQAPGKERELVAAISWSGGSTFYADSVKGRFTISRDNAKKTVYLQMNSLKPEDTAVYYCAALGRPYGSDYWGQGTQVTVSS | high polyreactivity
14 | QVQLVESGGGLVQAGGSLRLSCAASGRTFYNYAMGWYRQAPGKERELVASIRKNGGSTYYADSVKGRFTISRDNAKNTVYLQMNSLKPEDTAVYYCAARYWGISRIFPSKYDYWGQGTQVTVSS | high polyreactivity
15 | QVQLVESGGGLVQAGGSLRLSCAASGRTFYPNAMGWSRQAPGKEREVVAAINSGGSTYYADSVKGRFTISRDKAKNTVYLQMNSLKPEDTAVYYCNAERRIAYEYWGQGTQVTVSS | low polyreactivity
16 | QVQLVESGGGLVQAGGSLRLSCAASGRTFYPNAMGWSRQAPGQERAFVARISDSGGSTYYADSVKGRFTISRDNAKNTVYLQMNSLKPEDNAVYYCAADYGDPRVNEYDYWGQGTQVTVSS | low polyreactivity
17 | QVQLVESGGGLVQAGGSLRLSCAASGRTFYPNTMGWYRQAPGKERELVATITRSGGNTYADSVKGRFTISRDNAKNTVYLQMNSLKREDTAVYYCNADQRRSYWLVSQRYDYWGQGTQVTVSS | low polyreactivity
18 | QVQLVESGGGLVQAGGSLRLSCAASGRTFYPYAMGWNRQAPGKERELVAAIRSSGGTTYYADSVKGRFTISRDNAKNTVYLQMNSLKPEDTAFYYCAAYVDRQGGYYWGQGTQVTVSS | high polyreactivity
19 | QVQLVESGGGLVQAGGSLRLSCAASGRTFYPYDLGWYRQEPGKERELVAAIRENGGSTYFADSVKGRFTISRDNAKNTVYLQLTSLKPEDNAVYYCAARNTRYWRYEYWGLGTQVTVSS | high polyreactivity
20 | QVQLVESGGGLVQAGGSLRLSCAASGRTFYPYVMGWYRQAPGKEREMVAAISYTGGSTYYADSVKGRFTISRDNAKNTVYLQMNSLKPEDTAVYYCNRAKYYSGGYRYHVDYWGQGTQVTVSS | high polyreactivity
21 | QVQLVESGGGLVQAGGSLRLSCAASGRTFYQYAMGWYRQAPGKERELVAAISRRGGSTYYADSVKGRFTISRDNAKNTVYLQMNSLKPEDTAVYYCAARVRGKYDYWGQGTQVTVSS | high polyreactivity

Row | Sequence | polyreactivity (PSR sort gate)
22 | QVQLVESGGGLVQAGGSLRLSCAASGRTFYQYDMGWYRQAPGKERELVAAIDWSGGSTYYADSVKGRFTISRDNAKNTVYLQMNSLKPEDTAVYYCNKDSHISTAYDYWGQGTQVTVSS | low polyreactivity
23 | QVQLVESGGGLVQAGGSLRLSCAASGRTFYQYDMGWYRQAPGKESELVAAIDWSGGSTYYADSVKGRFTISRDYAKITVYLQMNSLKPEDTAVYYCNADAYPHPVVGYDYWGQGTQVTVSS | low polyreactivity
24 | QVQLVESGGGLVQAGGSLRLSCAASGRTFYQYTMGWYRQAPGKERELVAAITTSTGNTYYADSVKGRFTISRDNAKNTDYLQMNSLKPEDTAVYYCAADTVWRLDYWGQGTQVTVSS | low polyreactivity
25 | QVQLVESGGGLVQAGGSLRLSCAASGRTFYRNAMGWSRPAPGKERELVAAISSDDSTNYADSVKGRFTISRDNAKNTVYLQMNSLKPEDTAVYYCNADYYYGYEYDYWGQGTQVTVSS | low polyreactivity
26 | QVQLVESGGGLVQAGGSLRLSCAASGRTFYRNAMGWYRQAPGKERELVAAISNGGSTNYADSVKGRFTISRDNAKNTVYLQMNSLKPEDTAVYYCAKAVIRWRGSGQHGYFWYDYLGQGTQVTVSS | high polyreactivity
27 | QVQLVESGGGLVQAGGSLRLSCAASGRTFYRNTMGWYRQAPGKEREFVAAISATAGRTYYADSVKGRFTISRDNAKNTVYLQMNSLKPEDTAVYYCAAVPLRNRWPNSWPALDYWGQGTQVTVSS | high polyreactivity
28 | QVQLVESGGGLVQAGGSLRLSCAASGRTFYRNTMGWYRQAPGKERELVAAITGSGGITYYADSVKGRFTISRDNAKNTVYLKMNSLKPEDTAVYYCAAARYLGQGTQVTVSS | high polyreactivity
29 | QVQLVESGGGLVQAGGSLRLSCAASGRTFYRYAMGLYRQAPRKERELVASITRGTSTNYADSVKGRFTISRDNAKNTVYLQMNSLKPEDTAVYYCNRRIFGGQRMYYWGQGTQVTVSS | high polyreactivity
30 | QVQLVESGGGLVQAGGSLRLSCAASGRTFYRYAMGWYRQAPGKERELVAAITGGGRTYYADSVKGRFTISRDNAKNTVYLQMNSLKPEDTAVYDCAAVVLRRPAYDYWGQGTQVTVSS | low polyreactivity
31 | QVQLVESGGGLVQAGGSLRLSCAASGRTFYRYAMGWYRQAPGKERELVAAITRRGDSTSYADSVKGRFTISRDNAKNTVYLQMNSLKPEDTAVYYCATLVQGSVYGLYGGGYWGQGTQVTVSS | low polyreactivity
32 | QVQLVESGGGLVQAGGSLRLSCAASGRTFYRYAMGWYRQAPGKERELVASITWSGGSTYYADSVKGRFTISRDNAKNTVYLQMNSLKPEDTAVYYCAAISAVTLRGYYYWGQGTQVTVSS | high polyreactivity
33 | QVQLVESGGGLVQAGGSLRLSCAASGRTFYRYVMAWYRQAPRKERELVADITRSGGSTYYADSVKGRFTISRDNAKNTVYLQMNSLKPEDTAVYYCNKRYRVWFDYWGQGTQVTVSS | high polyreactivity
34 | QVQLVESGGGLVQAGGSLRLSCAASGRTFYRYVMGWYRQAPGKERALVAAITWSGGSTYYADSVKGRFTISRDNAKNTVYLQMNSLKPEDTAVYYCAKGLYDASRRYYYWGQGTQVTVSS | high polyreactivity
35 | QVQLVESGGGLVQAGGSLRLSCAASGRTFYSNAMGWYRQAPGKERELVAAITSTDDSTYYADSVKGRFTISRDNAKNTVNLQMYSLKPEYTAVYYCNTDGLIAIRGLWWFEFDYWGQGTQVTVSS | low polyreactivity
36 | QVQLVESGGGLVQAGGSLRLSCAASGRTFYSNAMGWYRQAPGKERELVATITRRGGSTYYADSVKGRFTISRDNAKNTVYLQMNSLKPEDTAVYYCNAVSSKGNPYYYWGQGTQVTVSS | high polyreactivity
37 | QVQLVESGGGLVQAGGSLRLSCAASGRTFYSYAMGWYRQAPGKEREFVAAINWSGTSTYADSVKGRFTISRDNAKNTVYLQMNSLKPEDTAVSYCAKTYRTLVRYWGQPFGYWGQGTQVTVSS | high polyreactivity
38 | QVQLVESGGGLVQAGGSLRLSCAASGRTFYSYAMGWYRQAPGKERELVAAINSGGDTYYADSVKGRFTISRDNAKNSVYLQMNSLKAEDSAVYYCAADYYWEMDSWGQGTQVTVSS | low polyreactivity
39 | QVQLVESGGGLVQAGGSLRLSCAASGRTFYSYAMGWYRQAPGKERELVAAISYTGASTFYADSVKGRFTISRDNAKNTVYLQMNSLKPEDTAVYYCAARKVRFGVDYWGPGTQVTVSS | high polyreactivity
40 | QVQLVESGGGLVQAGGSLRLSCAASGRTFYSYAMGWYRQAPGKERELVASISSSGASTYYADSVKGRFTISRDNAKNTVYLQMNSLKPEDTAVYYCNSVWRTSFITIYGFDYWGQGTQVTVSS | high polyreactivity
41 | QVQLVESGGGLVQAGGSLRLSCAASGRTFYSYAMGWYRQAPGKEREWVATITNGDTTNYADSVKGRFTISRDNAKNTVYLQMNSLKPEDTAVYYCAKDISPGYDEYDYWGQGTQVTVSS | low polyreactivity
